Experimental data published in the RNAGym collection of RNA variant scans (doi:10.1093/molbev/msab373).

B1: Azoarcus group I ribozyme (parent)
chain: GUGCCUUGCGCCGGGAAACCACGCAAGGGAUGGUGUCAAAUUCGGCGAAACCUAAGCGCCCGCCCGGGCGUAUGGCAACGCCGAGCCAAGCUUCGGCGCCUGCGCCGAUGAAGGUGUAGAGACUAGACGGCACCCACCUAAGGCAAACGCUAUGGUGAAGGCAUAGUCCAGGGAGUGGCGAAAGUCACACAAACCGG

Variants of: B1
Test: reverse-splicing fitness (ratio to wild type); higher = more active; in vitro selection; Mg2+ level not given
Method in brief: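 An in vitro group I ribozyme library with randomized positions was T7-transcribed and gel-purified. In triplicate, 10 pmol RNA in EPPS pH 7.5 was reacted with 50 pmoles of a 30-nt RNA substrate for 1 h at 37 °C across several added MgCl2 levels (1–48 mM), then stopped with EDTA. Products were reverse transcribed from a substrate-complementary primer, PCR-amplified and sequenced (HiSeq 4000). Fitness is a variant's read proportion after selection over that before, normalised to wild type.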

Variant	reverse-splicing fitness
GUGCCUUGCGCCGGGAAACCACGCAAGGGAUGGUGUCAAAUUCGGCGAAACCUAAGCGCCCGCCCGGGCGUAUGGCAACGCAGAGCCAAGCUUCGGCGCCUGCGCCGAUGAAGGUGUAGCGACUAGACGGCACCCACCUAAGGCAAACGAUAUGGUGAAGGCAUAGUCGAGGGAGUGGCGAAAGUCACACAAACCGG	0.0106
GUGCCUUGCGCCGGGAAACCACGCAAGGGAUGGUGUCAAAUUCGGCGAAACCUAAGCGCCCGCCCGGGCGUAUGGCAACGCAGAGCCAAGCUUCGGCGCCUGCGCCGAUGAAGGUGUAGCGACUAGACGGCACCCACCUAAGGCAAACGAUAUGGUGAAGGCAUAGUCUAGGGAGUGGCGAAAGUCACACAAACCGG	0.0147
GUGCCUUGCGCCGGGAAACCACGCAAGGGAUGGUGUCAAAUUCGGCGAAACCUAAGCGCCCGCCCGGGCGUAUGGCAACGCAGAGCCAAGCUUCGGCGCCUGCGCCGAUGAAGGUGUAGCGACUAGACGGCACCCACCUAAGGCAAACGAUAUGGUGAAGGCAUAGUCAAGGGAGUGGCGAAAGUCACACAAACCGG	0.0115
GUGCCUUGCGCCGGGAAACCACGCAAGGGAUGGUGUCAAAUUCGGCGAAACCUAAGCGCCCGCCCGGGCGUAUGGCAACGCAGAGCCAAGCUUCGGCGCCUGCGCCGAUGAAGGUGUAGCGACUAGACGGCACCCACCUAAGGCAAACGAUAUGGUGAAGGCAUAGUCGAGGGAGGGGCGAAAGUCACACAAACCGG	0.00627
GUGCCUUGCGCCGGGAAACCACGCAAGGGAUGGUGUCAAAUUCGGCGAAACCUAAGCGCCCGCCCGGGCGUAUGGCAACGCAGAGCCAAGCUUCGGCGCCUGCGCCGAUGAAGGUGUAGCGACUAGACGGCACCCACCUAAGGCAAACGAUAUGGUGAAGGCAUAGUCGAGGGAGAGGCGAAAGUCACACAAACCGG	0.021
GUGCCUUGCGCCGGGAAACCACGCAAGGGAUGGUGUCAAAUUCGGCGAAACCUAAGCGCCCGCCCGGGCGUAUGGCAACGCAGAGCCAAGCUUCGGCGCCUGCGCCGAUGAAGGUGUAGCGACUAGACGGCACCCACCUAAGGCAAACGAUAUGGUGAAGGCAUAGUCGAGGGAGCGGCGAAAGUCACACAAACCGG	0.0258
GUGCCUUGCGCCGGGAAACCACGCAAGGGAUGGUGUCAAAUUCGGCGAAACCUAAGCGCCCGCCCGGGCGUAUGGCAACGCAGAGCCAAGCUUCGGCGCCUGCGCCGAUGAAGGUGUAGCGACUAGACGGCACCCACCUAAGGCUAACGUUAUGGUGAAGGCAUAGUCCAGGGAGGGGCGAAAGUCACACAAACCGG	0.00864
GUGCCUUGCGCCGGGAAACCACGCAAGGGAUGGUGUCAAAUUCGGCGAAACCUAAGCGCCCGCCCGGGCGUAUGGCAACGCAGAGCCAAGCUUCGGCGCCUGCGCCGAUGAAGGUGUAGCGACUAGACGGCACCCACCUAAGGCUAACGUUAUGGUGAAGGCAUAGUCCAGGGAGCGGCGAAAGUCACACAAACCGG	0.0422
GUGCCUUGCGCCGGGAAACCACGCAAGGGAUGGUGUCAAAUUCGGCGAAACCUAAGCGCCCGCCCGGGCGUAUGGCAACGCAGAGCCAAGCUUCGGCGCCUGCGCCGAUGAAGGUGUAGCGACUAGACGGCACCCACCUAAGGCUAACGUUAUGGUGAAGGCAUAGUCCAGGGAGAGGCGAAAGUCACACAAACCGG	0.0269
GUGCCUUGCGCCGGGAAACCACGCAAGGGAUGGUGUCAAAUUCGGCGAAACCUAAGCGCCCGCCCGGGCGUAUGGCAACGCAGAGCCAAGCUUCGGCGCCUGCGCCGAUGAAGGUGUAGCGACUAGACGGCACCCACCUAAGGCUAACGCUAUGGUGAAGGCAUAGUCCAGGGAGCGGCGAAAGUCACACAAACCGG	0.0639
GUGCCUUGCGCCGGGAAACCACGCAAGGGAUGGUGUCAAAUUCGGCGAAACCUAAGCGCCCGCCCGGGCGUAUGGCAACGCAGAGCCAAGCUUCGGCGCCUGCGCCGAUGAAGGUGUAGCGACUAGACGGCACCCACCUAAGGCUAACGCUAUGGUGAAGGCAUAGUCCAGGGAGGGGCGAAAGUCACACAAACCGG	0.00885
GUGCCUUGCGCCGGGAAACCACGCAAGGGAUGGUGUCAAAUUCGGCGAAACCUAAGCGCCCGCCCGGGCGUAUGGCAACGCAGAGCCAAGCUUCGGCGCCUGCGCCGAUGAAGGUGUAGCGACUAGACGGCACCCACCUAAGGCUAACGCUAUGGUGAAGGCAUAGUCCAGGGAGAGGCGAAAGUCACACAAACCGG	0.0383
GUGCCUUGCGCCGGGAAACCACGCAAGGGAUGGUGUCAAAUUCGGCGAAACCUAAGCGCCCGCCCGGGCGUAUGGCAACGCAGAGCCAAGCUUCGGCGCCUGCGCCGAUGAAGGUGUAGCGACUAGACGGCACCCACCUAAGGCUAACGCUAUGGUGAAGGCAUAGUCAAGGGAGUGGCGAAAGUCACACAAACCGG	0.00925
GUGCCUUGCGCCGGGAAACCACGCAAGGGAUGGUGUCAAAUUCGGCGAAACCUAAGCGCCCGCCCGGGCGUAUGGCAACGCAGAGCCAAGCUUCGGCGCCUGCGCCGAUGAAGGUGUAGCGACUAGACGGCACCCACCUAAGGCUAACGCUAUGGUGAAGGCAUAGUCUAGGGAGUGGCGAAAGUCACACAAACCGG	0.0199
GUGCCUUGCGCCGGGAAACCACGCAAGGGAUGGUGUCAAAUUCGGCGAAACCUAAGCGCCCGCCCGGGCGUAUGGCAACGCAGAGCCAAGCUUCGGCGCCUGCGCCGAUGAAGGUGUAGCGACUAGACGGCACCCACCUAAGGCUAACGCUAUGGUGAAGGCAUAGUCGAGGGAGUGGCGAAAGUCACACAAACCGG	0.00932
